How the values were obtained:
Fcγ-receptor I (mice) = Fcγ-receptor I (mice) (UniProt P26151); assay: flow cytometry saturation binding on HeLa cells expressing RFP-tagged FcγRI (FIG. 61A, right panel)
Fcγ-receptor IV (mice) = assay: flow cytometry saturation binding on HeLa cells expressing RFP-tagged FcγRIV (FIG. 61D, right panel)
Fcγ-receptor III (mice) = Fcγ-receptor III (mice) (UniProt P08508); assay: flow cytometry saturation binding on HeLa cells expressing RFP-tagged FcγRIII (FIG. 61C, right panel)
Sequence of Fcγ-receptor III (mice) (P08508 31-261): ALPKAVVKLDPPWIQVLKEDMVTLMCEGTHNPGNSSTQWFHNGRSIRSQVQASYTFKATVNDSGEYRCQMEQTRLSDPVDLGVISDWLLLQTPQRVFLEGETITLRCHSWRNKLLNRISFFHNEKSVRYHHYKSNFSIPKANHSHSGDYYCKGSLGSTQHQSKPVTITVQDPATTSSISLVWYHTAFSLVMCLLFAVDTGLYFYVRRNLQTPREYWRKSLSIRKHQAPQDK

Fcγ-receptor IIb (mice) = Fcγ-receptor IIb (mice) (UniProt P08101); assay: flow cytometry saturation binding on HeLa cells expressing RFP-tagged FcγRIIb (FIG. 61B, right panel)
Sequence of Fcγ-receptor IIb (mice) (P08101 30-330): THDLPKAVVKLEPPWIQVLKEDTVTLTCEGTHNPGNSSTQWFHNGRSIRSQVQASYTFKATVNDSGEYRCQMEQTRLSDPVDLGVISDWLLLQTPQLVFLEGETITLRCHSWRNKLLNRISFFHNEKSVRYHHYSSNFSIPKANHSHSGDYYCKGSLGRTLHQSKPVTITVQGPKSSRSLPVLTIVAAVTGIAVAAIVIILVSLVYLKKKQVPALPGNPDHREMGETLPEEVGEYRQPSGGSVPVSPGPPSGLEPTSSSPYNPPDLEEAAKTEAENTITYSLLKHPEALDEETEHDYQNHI

Sequence of Fcγ-receptor IV (mice) (A0A0B4J1G0 21-249): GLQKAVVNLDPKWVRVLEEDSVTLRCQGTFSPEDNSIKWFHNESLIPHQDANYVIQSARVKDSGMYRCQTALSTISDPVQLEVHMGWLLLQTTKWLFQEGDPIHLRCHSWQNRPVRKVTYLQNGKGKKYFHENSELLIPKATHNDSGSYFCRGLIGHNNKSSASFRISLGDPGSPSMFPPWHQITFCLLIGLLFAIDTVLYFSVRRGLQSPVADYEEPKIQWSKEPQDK
Sequence of Fcγ-receptor I (mice) (P26151 25-404): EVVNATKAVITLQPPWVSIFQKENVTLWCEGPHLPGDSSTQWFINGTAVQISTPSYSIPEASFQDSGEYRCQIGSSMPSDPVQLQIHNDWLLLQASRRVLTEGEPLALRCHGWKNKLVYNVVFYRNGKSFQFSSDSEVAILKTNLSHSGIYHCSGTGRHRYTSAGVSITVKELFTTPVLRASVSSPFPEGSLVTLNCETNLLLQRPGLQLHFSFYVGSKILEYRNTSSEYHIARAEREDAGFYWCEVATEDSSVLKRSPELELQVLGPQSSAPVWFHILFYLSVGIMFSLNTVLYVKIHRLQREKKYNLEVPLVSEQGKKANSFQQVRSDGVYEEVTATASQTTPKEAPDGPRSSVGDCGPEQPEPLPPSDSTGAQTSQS

- Kd (Fcγ-receptor I (mice)): 201 nM
- Kd (Fcγ-receptor IV (mice)): 1220 nM
- Kd (Fcγ-receptor III (mice)): 2330 nM
- Kd (Fcγ-receptor IIb (mice)): 609 nM
Substance: whole rabbit IgG (antibody)
